Numbering of substitutions follows the chain as printed.
T1: extracellular domain of the human leptin receptor (human, UniProt P48357 22-839)
T1 construct: extracellular domain; a tag is not mentioned for the ELISA and cross-linking experiments; also called hECD; recombinant leptin receptor extracellular domain
T1 sequence (looked up): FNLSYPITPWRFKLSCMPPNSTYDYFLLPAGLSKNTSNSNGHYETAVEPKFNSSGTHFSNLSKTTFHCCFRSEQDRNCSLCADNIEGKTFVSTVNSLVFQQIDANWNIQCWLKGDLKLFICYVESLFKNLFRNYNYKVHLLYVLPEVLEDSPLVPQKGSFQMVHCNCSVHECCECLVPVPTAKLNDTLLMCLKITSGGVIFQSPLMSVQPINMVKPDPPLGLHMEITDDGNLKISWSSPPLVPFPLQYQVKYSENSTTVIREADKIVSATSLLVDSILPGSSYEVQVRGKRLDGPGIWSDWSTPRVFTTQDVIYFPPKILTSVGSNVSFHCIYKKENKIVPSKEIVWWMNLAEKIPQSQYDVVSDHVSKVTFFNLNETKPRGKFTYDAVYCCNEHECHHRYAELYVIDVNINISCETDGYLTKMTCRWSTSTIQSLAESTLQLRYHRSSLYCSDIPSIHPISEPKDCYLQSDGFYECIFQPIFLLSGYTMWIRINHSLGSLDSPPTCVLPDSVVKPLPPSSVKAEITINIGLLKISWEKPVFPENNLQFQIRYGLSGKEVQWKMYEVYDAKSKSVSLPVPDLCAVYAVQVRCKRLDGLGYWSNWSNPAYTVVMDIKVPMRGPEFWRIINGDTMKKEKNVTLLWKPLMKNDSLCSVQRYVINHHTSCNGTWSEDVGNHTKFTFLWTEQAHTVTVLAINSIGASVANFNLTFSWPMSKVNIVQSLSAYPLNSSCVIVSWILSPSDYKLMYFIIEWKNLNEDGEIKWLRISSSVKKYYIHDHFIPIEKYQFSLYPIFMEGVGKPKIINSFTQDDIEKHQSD

T2: N terminal domain (NTD) of the leptin receptor extracellular domain, F22-Q121 (human, UniProt P48357 22-121)
T2 sequence: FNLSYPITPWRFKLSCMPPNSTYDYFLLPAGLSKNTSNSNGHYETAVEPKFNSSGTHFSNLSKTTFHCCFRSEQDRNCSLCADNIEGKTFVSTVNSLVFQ

T3: first cytokine receptor homology domain (CRH1) of the leptin receptor extracellular domain, Q122-V333 (human, UniProt P48357 122-333)
T3 construct: Expressed and purified subdomain
T3 sequence: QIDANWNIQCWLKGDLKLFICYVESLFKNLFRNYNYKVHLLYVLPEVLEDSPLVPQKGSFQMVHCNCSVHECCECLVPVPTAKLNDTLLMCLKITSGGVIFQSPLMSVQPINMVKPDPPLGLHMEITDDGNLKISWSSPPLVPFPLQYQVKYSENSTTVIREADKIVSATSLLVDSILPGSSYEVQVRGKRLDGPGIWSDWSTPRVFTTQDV

T4: immunoglobulin-like domain (IgD) of the leptin receptor extracellular domain, I334-V427 (human, UniProt P48357 334-427)
T4 construct: Expressed and purified subdomain
T4 sequence: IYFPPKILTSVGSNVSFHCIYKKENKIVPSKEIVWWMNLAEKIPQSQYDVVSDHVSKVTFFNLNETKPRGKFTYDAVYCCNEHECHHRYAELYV

T5: fibronectin type III domains (FNIII) of the leptin receptor extracellular domain, I636-D839 (human, UniProt P48357 636-839)
T5 construct: Expressed and purified subdomain
T5 sequence: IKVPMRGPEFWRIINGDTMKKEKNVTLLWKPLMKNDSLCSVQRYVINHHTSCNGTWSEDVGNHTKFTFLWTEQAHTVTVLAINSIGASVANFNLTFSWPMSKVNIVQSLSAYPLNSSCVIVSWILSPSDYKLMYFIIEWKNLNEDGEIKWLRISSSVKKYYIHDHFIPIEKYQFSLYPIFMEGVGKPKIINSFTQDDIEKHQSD

B1: S1scAb06 (antibody, V domains shown)
VH: QVQLVESGGGVVQPGRSLRLSCAASGFTFSSYGMHWVRQAPGKGLEWVAVISYDGSNKYYADSVKGRFTISRDNSKNTLYLQMNSLRAEDTAVYYCAKSLRNSFDYWGQGTLVTVSS
VL: EIVLTQSPGTLSLSPGERATLSCRASQSVSSNYLAWYQQKPGQAPRLLIYGASSRPTGIPDRFSGSGSGTDFTLTISRLEPEDFAVYYCQQYAASPLTFGGGTKLEIK
notes: also called S1scAb6; 51scAb06
B2: S2H3 (antibody, V domains shown)
VH: B1 VH with V5L, E6Q, K98G, S99V, L100R, R101E, S103Y, D105T
VL: B1 VL
notes: also called SC2H3
B3: S2H2 (antibody, V domains shown)
VH: B1 VH with V5L, E6Q, K98T, S99F, L100R, R101E, S103Y, D105E
VL: B1 VL
notes: also called SC2H2; 52H2
B4: S2H6 (antibody, V domains shown)
VH: B1 VH with V5L, E6Q, K98S, S99F, L100Q, R101E, S103Y, D105T
VL: B1 VL
notes: also called SC2H6
B5: S2H5 (antibody, V domains shown)
VH: B1 VH with V5L, E6Q, K98S, S99R, L100Y, R101E, S103Y, D105S, Y106L
VL: B1 VL
notes: also called SC2H5
B6: S2H7 (antibody, V domains shown)
VH: B1 VH with V5L, E6Q, K98T, S99R, L100Y, R101E, S103Y, D105S, Y106T
VL: B1 VL
notes: also called SC2H7
B7: S2H1 (antibody, V domains shown)
VH: B1 VH with V5L, E6Q, K98S, S99L, L100Y, R101E, S103Y, D105S, Y106L
VL: B1 VL
notes: also called SC2H1

Legend:
[1] = molecular target: T1, extracellular domain of the human …; assay: SPR, Biacore T200; His-tagged leptin receptor ECD amine-coupled on a CM5 chip, binder as analyte
Procedure: The SPR binding assays were performed using the Biacore T200™ (GE Healthcare). […] All manipulations were performed as described in the user guide of the manufacturer. The analysis of the results were processed in BIA evaluation Software™.

[2] = molecular target: T1, extracellular domain of the human …; assay: SPR; leptin receptor ECD immobilized, antibody as analyte
[3] = molecular target: T2, N terminal domain (NTD) of the leptin …; assay: ELISA of S2H6 on purified subdomains of the leptin receptor extracellular domain, OD405; antibody concentration not given
Text: (§1) To test ability if the antibody to bind these domains, these subdomain were used in an ELISA-based biding assay.

[4] = molecular target: T3, first cytokine receptor homology domain …; assay: as above
Text: as §1

[5] = molecular target: T4, immunoglobulin-like domain (IgD) of the …; assay: as above
Text: as §1

[6] = molecular target: T5, fibronectin type III domains (FNIII) of …; assay: as above
Text: as §1

Binder	Kd [1]	koff [1]	kon [1]	Kd [2]	koff [2]	kon [2]	binding result [3]	binding result [4]	binding result [5]	binding result [6]
B1	7470 pM	0.0516 s⁻¹	6.91e+06 M⁻¹ s⁻¹	–	–	–	–	–	–	–
B2	–	–	–	429 pM	0.0002 s⁻¹	466000 M⁻¹ s⁻¹	–	–	–	–
B3	–	–	–	355 pM	0.000119 s⁻¹	336000 M⁻¹ s⁻¹	–	–	–	–
B4	390 pM	0.000308 s⁻¹	786000 M⁻¹ s⁻¹	390 pM	0.000308 s⁻¹	786000 M⁻¹ s⁻¹	no binding	no binding	no binding	no binding
B5	–	–	–	626 pM	0.000164 s⁻¹	262000 M⁻¹ s⁻¹	–	–	–	–
B6	–	–	–	639 pM	0.000171 s⁻¹	268000 M⁻¹ s⁻¹	–	–	–	–
B7	–	–	–	578 pM	0.000271 s⁻¹	468000 M⁻¹ s⁻¹	–	–	–	–

From patent US20220275097A1 (SHANGHAITECH UNIVERSITY, published 2022)
